94 variants from the supplement of paper PMC10567573 can be followed below.

The labels stand for the following.
B1: FBXO34 (parent)
chain: ASSVESTLPVLEASSWKKQVSHDF
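Further: lentivirally expressed fusions sorted by FACS into six bins by GFP to DsRed ratio, PSI derived from sequencing read proportions per bin multiplied by bin number.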

The variants in this data set derive from B1. Briefly: protein stability index of a GFP-peptide fusion (GPS, HEK-293T) (PSI 1-6); higher = more stable. The note with it: c terminus: a fixed tail appended.
ASSVESTLIVLEASSWKKQVSHDF [P9I]: the protein stability index was 1.74.
Then ASSVESTLVVLEASSWKKQVSHDF [P9V], with 2.4; and ASSVESTLWVLEASSWKKQVSHDF [P9W], with 2.8; and ASSVESTLFVLEASSWKKQVSHDF [P9F], with 2.12.
For the variant ASSVESTLHVLEASSWKKQVSHDF [P9H], the protein stability index came out at 1.56.
Then ASSVESTLMVLEASSWKKQVSHDF [P9M], with 2.6; and ASSVESTLNVLEASSWKKQVSHDF [P9N], with 2.51; and ASSVESTLTVLEASSWKKQVSHDF [P9T], with 1.98.
As for ASSVESTLYVLEASSWKKQVSHDF [P9Y], the figure is 1.8; as for ASSVESTLPNLEASSWKKQVSHDF [V10N], 1.84; as for ASSVESTLPPLEASSWKKQVSHDF [V10P], 3.19.
For the variant ASSVESTLPQLEASSWKKQVSHDF [V10Q], the protein stability index was determined as 3.16.
Then ASSVESTLPKLEASSWKKQVSHDF [V10K], with 2.45; and ASSVESTLPTLEASSWKKQVSHDF [V10T], with 2.58.
For ASSVESTLPMLEASSWKKQVSHDF [V10M], the protein stability index was 3.73.
As for ASSVESTLPGLEASSWKKQVSHDF [V10G], the figure is 3.41; as for ASSVESTLPDLEASSWKKQVSHDF [V10D], 3.25.
As for ASSVESTLPCLEASSWKKQVSHDF [V10C], the protein stability index worked out at 2.95.
As to ASSVESTLPRLEASSWKKQVSHDF [V10R], the protein stability index was determined as 2.3.
As to ASSVESTLPELEASSWKKQVSHDF [V10E], the protein stability index is 2.83.
On to ASSVESTLPHLEASSWKKQVSHDF [V10H], for which the protein stability index amounted to 2.5.
As for ASSVESTLPILEASSWKKQVSHDF [V10I], the protein stability index was determined as 2.39.
As for ASSVESTLPFLEASSWKKQVSHDF [V10F], the figure is 2.22; as for ASSVESTLPALEASSWKKQVSHDF [V10A], 3.64.
Consider ASSVESTLPSLEASSWKKQVSHDF [V10S], for which the protein stability index turned out to be 3.22.
For the variant ASSVESTLPWLEASSWKKQVSHDF [V10W], the protein stability index came to 2.37.
In the case of ASSVESTLPLLEASSWKKQVSHDF [V10L], the protein stability index stood at 2.55.
Turning to ASSVESTLPYLEASSWKKQVSHDF [V10Y], the protein stability index turned out to be 1.76.
Take ASSVESTLPVLEASSDKKQVSHDF [W16D]: the protein stability index came out at 5.44.
ASSVESTLPVLEASSRKKQVSHDF [W16R]: the protein stability index came out at 4.69.
Turning to ASSVESTLPVLEASSAKKQVSHDF [W16A], the protein stability index was found to be 4.01.
ASSVESTLPVLEASSMKKQVSHDF [W16M]: the protein stability index turned out to be 5.15.
ASSVESTLPVLEASSNKKQVSHDF [W16N]: the protein stability index is 4.99.
Then ASSVESTLPVLEASSLKKQVSHDF [W16L], with 3.94.
For ASSVESTLPVLEASSPKKQVSHDF [W16P], the protein stability index was found to be 4.61.
For ASSVESTLPVLEASSCKKQVSHDF [W16C], the protein stability index came to 4.2.
As for ASSVESTLPVLEASSTKKQVSHDF [W16T], the figure is 4.81; as for ASSVESTLPVLEASSFKKQVSHDF [W16F], 3.67; as for ASSVESTLPVLEASSVKKQVSHDF [W16V], 4.99.
Then ASSVESTLPVLEASSKKKQVSHDF [W16K], with 4.18; and ASSVESTLPVLEASSQKKQVSHDF [W16Q], with 4.71.
Take ASSVESTLPVLEASSSKKQVSHDF [W16S]: the protein stability index came to 4.2.
Regarding ASSVESTLPVLEASSHKKQVSHDF [W16H], the protein stability index amounted to 4.31.
For ASSVESTLPVLEASSEKKQVSHDF [W16E], the protein stability index worked out at 5.07.
Then ASSVESTLPVLEASSYKKQVSHDF [W16Y], with 3.75.
In the case of ASSVESTLPVLEASSGKKQVSHDF [W16G], the protein stability index is 4.66.
Take ASSVESTLPVLEASSIKKQVSHDF [W16I]: the protein stability index is 3.71.
Regarding ASSVESTHPVLEASSWKKQVSHDF [L8H], the protein stability index came to 2.89.
As to ASSVESTPPVLEASSWKKQVSHDF [L8P], the protein stability index is 2.66.
For the variant ASSVESTRPVLEASSWKKQVSHDF [L8R], the protein stability index is 3.05.
Take ASSVESTMPVLEASSWKKQVSHDF [L8M]: the protein stability index is 1.91.
As to ASSVESTFPVLEASSWKKQVSHDF [L8F], the protein stability index was 2.52.
In the case of ASSVESTVPVLEASSWKKQVSHDF [L8V], the protein stability index came to 1.83.
As for ASSVESTEPVLEASSWKKQVSHDF [L8E], the figure is 3.38; as for ASSVESTGPVLEASSWKKQVSHDF [L8G], 3.59.
As to ASSVESTCPVLEASSWKKQVSHDF [L8C], the protein stability index turned out to be 3.4.
Regarding ASSVESTTPVLEASSWKKQVSHDF [L8T], the protein stability index is 3.38.
As for ASSVESTSPVLEASSWKKQVSHDF [L8S], the figure is 3.57.
As for ASSVESTKPVLEASSWKKQVSHDF [L8K], the figure is 3.22.
Regarding ASSVESTYPVLEASSWKKQVSHDF [L8Y], the protein stability index was found to be 2.39.
ASSVESTQPVLEASSWKKQVSHDF [L8Q]: the protein stability index came out at 2.04.
Regarding ASSVESTIPVLEASSWKKQVSHDF [L8I], the protein stability index stood at 2.82.
Consider ASSVESTLPVLEASQWKKQVSHDF [S15Q], for which the protein stability index came out at 3.44.
Then ASSVESTLPVLEASVWKKQVSHDF [S15V], with 2.84; and ASSVESTLPVLEASMWKKQVSHDF [S15M], with 3.5.
As to ASSVESTLPVLEASHWKKQVSHDF [S15H], the protein stability index came to 3.24.
On to ASSVESTLPVLEASKWKKQVSHDF [S15K], for which the protein stability index came to 3.92.
As for ASSVESTLPVLEASRWKKQVSHDF [S15R], the figure is 3.81; as for ASSVESTLPVLEASGWKKQVSHDF [S15G], 3.65; as for ASSVESTLPVLEASDWKKQVSHDF [S15D], 4.01.
As for ASSVESTLPVLEASNWKKQVSHDF [S15N], the protein stability index is 2.88.
Turning to ASSVESTLPVLEASAWKKQVSHDF [S15A], the protein stability index came out at 3.05.
For the variant ASSVESTLPVLEASIWKKQVSHDF [S15I], the protein stability index turned out to be 4.11.
Then ASSVESTLPVLEASLWKKQVSHDF [S15L], with 3.4; and ASSVESTLPVLEASFWKKQVSHDF [S15F], with 2.75.
ASSVESTLPVLEASWWKKQVSHDF [S15W]: the protein stability index was found to be 2.38.
As for ASSVESTLPVLEASTWKKQVSHDF [S15T], the figure is 3.07; as for ASSVESTLPVLEASPWKKQVSHDF [S15P], 3.61.
Consider ASSVESTLPVLEASYWKKQVSHDF [S15Y], for which the protein stability index came to 2.99.
For ASSVESTLPVLETSSWKKQVSHDF [A13T], the protein stability index worked out at 2.18.
As for ASSVESTLPVLEPSSWKKQVSHDF [A13P], the figure is 3.66.
In the case of ASSVESTLPVLEQSSWKKQVSHDF [A13Q], the protein stability index came to 2.37.
Regarding ASSVESTLPVLEMSSWKKQVSHDF [A13M], the protein stability index was determined as 2.85.
As for ASSVESTLPVLEDSSWKKQVSHDF [A13D], the protein stability index was found to be 3.19.
For the variant ASSVESTLPVLELSSWKKQVSHDF [A13L], the protein stability index turned out to be 2.61.
ASSVESTLPVLEHSSWKKQVSHDF [A13H]: the protein stability index is 2.37.
Then ASSVESTLPVLEVSSWKKQVSHDF [A13V], with 3; and ASSVESTLPVLEKSSWKKQVSHDF [A13K], with 2.27; and ASSVESTLPVLERSSWKKQVSHDF [A13R], with 1.59.
Take ASSVESTLPVLECSSWKKQVSHDF [A13C]: the protein stability index came out at 2.36.
On to ASSVESTLPVLEFSSWKKQVSHDF [A13F], for which the protein stability index came to 2.38.
With ASSVESTLPVLESSSWKKQVSHDF [A13S], the protein stability index was 3.36.
ASSVESTLPVLENSSWKKQVSHDF [A13N]: the protein stability index is 3.21.
On to ASSVESTLPVLEISSWKKQVSHDF [A13I], for which the protein stability index was 2.49.
